Assay results published in patent US20250074980A1 (BRIGHAM AND WOMEN S HOSPITAL, published 2025).
Substitutions are numbered along the chain they refer to. Names and notes keep the numbering of the source. Values joined by “and” are separate entries in the source; they are usually repeats but may differ in a detail not shown here. Equal values may be shown once. Each block holds one binder with its values, some of them ahead of it.

What was measured:
His-tagged CEACAM1 [1] = biological target: T1, His-tagged CEACAM1 (human, UniProt P13688 35-428); assay: SPR multi-cycle, purified IgG captured
T1 construct: 45 kDa SPR analyte; also called CEACAM1-HIS; CEACAM1 analyte
T1 sequence: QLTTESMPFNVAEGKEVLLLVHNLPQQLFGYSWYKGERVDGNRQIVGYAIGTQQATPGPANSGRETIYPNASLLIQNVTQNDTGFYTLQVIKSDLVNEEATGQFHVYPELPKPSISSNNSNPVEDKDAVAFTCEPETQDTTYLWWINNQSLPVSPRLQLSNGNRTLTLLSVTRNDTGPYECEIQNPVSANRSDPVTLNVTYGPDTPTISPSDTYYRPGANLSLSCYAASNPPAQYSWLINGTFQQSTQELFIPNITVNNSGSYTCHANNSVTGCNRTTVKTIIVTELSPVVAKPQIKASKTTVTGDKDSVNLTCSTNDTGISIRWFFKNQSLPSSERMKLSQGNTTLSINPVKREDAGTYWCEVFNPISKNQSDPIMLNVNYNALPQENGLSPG
Protocol: Variants CP08H03/Vκ8 S29A and CP08H03/CP08F05 were further analyzed using multi-cycle kinetics analysis, using a Biacore T200 instrument running Biacore T200 Evaluation Software V3.0.1. The purified antibodies were diluted to a concentration of 1 μg/ml in HBS-P+. At the start of each cycle, each antibody was captured on the Protein A surface to give an RL of ˜100 RU. Following capture, the surface was allowed to stabilize. Kinetic data was obtained using a flow rate of 80 μl/min to minimize any potential mass transfer effects. Multiple repeats of the blank (no CEACAM1) and a repeat of a single concentration of the analyte were programmed into the kinetic run in order to check the stability of both the surface and analyte over the kinetic cycles. For kinetic analysis, a two-fold dilution range was selected from 100 to 1.56 nM CEACAM1. The association phase of CEACAM1 was monitored for 150 seconds and the dissociation phase was measured for 150 seconds. Regeneration of the Protein A surface was conducted using two injections of 10 mM glycine-HCL pH 1.5 at the end of each cycle.
The signal from the reference channel Fc1 was subtracted from that of Fc2, Fc3 and Fc4 to correct for differences in non-specific binding to a reference surface, and a global Rmax parameter was used in the 1-to-1 binding model. The relative Kp compared to Parent (VH1/Vκ8 S29A) was calculated by dividing the Kp of the affinity matured composite human antibody variants by that of the Parent on the same chip. The kinetic parameters measured for the interaction of CEACAM1 with affinity matured CEACAM1 antibody variants CP08H03/Vκ8 S29A and CP08H03/CP08F05 are shown in Table 23.

His-tagged CEACAM1 [2] = biological target: T1, His-tagged CEACAM1; assay: SPR single-cycle, supernatant IgG captured
Method in brief: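 Humanized, affinity-matured IgGs from crude supernatant (0.5 μg/ml in HBS-P+) captured on Protein A to ~100 RU. Single-cycle kinetics: CEACAM1 at three concentrations, 70–280 nM two-fold, 80 μl/min, 80 s association each, 150 s dissociation. Reference-channel and blank-run subtraction applied.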

[3] = biological target: T2, CEACAM5 (recombinant protein) (human, UniProt P06731 35-685); assay: SPR single-cycle kinetics, antibody captured on Protein A, CEACAM-5 injected at three rising concentrations [Cont.]
T2 construct: construct not described
T2 sequence (looked up): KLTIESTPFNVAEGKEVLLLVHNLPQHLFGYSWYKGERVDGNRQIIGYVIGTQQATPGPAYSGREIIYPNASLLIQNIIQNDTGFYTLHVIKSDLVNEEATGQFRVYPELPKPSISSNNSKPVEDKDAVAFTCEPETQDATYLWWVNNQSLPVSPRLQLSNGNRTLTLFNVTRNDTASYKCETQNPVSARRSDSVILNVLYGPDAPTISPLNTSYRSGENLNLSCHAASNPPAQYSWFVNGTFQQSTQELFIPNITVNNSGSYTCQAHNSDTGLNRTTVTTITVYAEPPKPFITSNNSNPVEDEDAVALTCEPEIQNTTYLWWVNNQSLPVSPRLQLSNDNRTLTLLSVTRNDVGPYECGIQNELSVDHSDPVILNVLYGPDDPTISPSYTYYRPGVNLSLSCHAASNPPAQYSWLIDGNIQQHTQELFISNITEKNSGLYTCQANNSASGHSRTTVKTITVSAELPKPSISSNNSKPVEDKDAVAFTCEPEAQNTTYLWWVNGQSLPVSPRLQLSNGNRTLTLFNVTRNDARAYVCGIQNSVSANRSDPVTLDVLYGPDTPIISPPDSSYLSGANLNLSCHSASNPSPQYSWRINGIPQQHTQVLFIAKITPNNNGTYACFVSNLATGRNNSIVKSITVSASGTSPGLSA
Protocol: In order to assess the binding of the humanized, affinity matured reformatted lead IgGs, single-cycle kinetics analysis was performed on crude supernatants using a Biacore T200 running Biacore T200 Control Software V2.0.1 and Biacore T200 Evaluation Software V3.0. Antibodies were diluted in HBS-P+ to a final concentration of 0.5 μg/ml. At the start of each cycle, antibodies were loaded onto Fc2, Fc3 and Fc4 of the Protein A chip. IgGs were captured at a flow rate of 10 μl/min to give an immobilisation level (RL) of ˜100 RU (a level calculated to obtain a Rₘₐₓ of ˜50-150 RU once the analyte is bound). The surface was then allowed to stabilize. Single-cycle kinetics data was obtained with CEACAM1 as the analyte at a flow rate of 80 μl/min to minimize any potential mass transfer effects. Multiple repeats with the parent (VH1/Vκ8 S29A) antibody were performed to check the stability of the surface and analyte over the kinetic cycles. The signal from the reference channel Fc1 (no antibody) was subtracted from that of Fc2, Fc3 and Fc4 to correct for differences in non-specific binding to the reference surface. […] The association phase for the three injections of increasing concentrations of CEACAM1 was monitored for 80 seconds each time and a single dissociation phase was measured for 150 seconds following the last injection of CEACAM1. […]

- Kd (His-tagged CEACAM1 [1]): 95 nM and 100 nM
- koff (His-tagged CEACAM1 [1]): 0.045 s⁻¹ and 0.035 s⁻¹
- kon (His-tagged CEACAM1 [1]): 470000 M⁻¹ s⁻¹ and 350000 M⁻¹ s⁻¹
B1: chimeric antibody VH0/Vκ0 (antibody, IgG4, V domains shown)
VH: EVQLVESGGDLVKPGGSLKLACAASGFIFSSHGMSWVRQTPDKRLEWVATISSGGTYTYYPDSVKGRFTISRDNDKNTLYLQMNSLKSEDTAMYYCARHDFDYDAAWFAYWGQGTLVTVSS
VL: QIVLTQSPALMSASPGVKVTMTCSANSSVSYMYWYRQKPRSSPKPWIYLTSNLASGVPARFSGSGSGTSYSLTISSMEAEDAATYYCQQWSSNPPTFGSGTKLEIK
notes: IgG4 (S241P), kappa; also called VH0/Vκ0 (control); Chimeric VH0/Vκ0

- Kd (His-tagged CEACAM1 [1]): 420 nM and 490 nM
- koff (His-tagged CEACAM1 [1]): 0.045 s⁻¹ and 0.06 s⁻¹
- kon (His-tagged CEACAM1 [1]): 110000 M⁻¹ s⁻¹ and 120000 M⁻¹ s⁻¹
- relative KD to parent (His-tagged CEACAM1 [1]): 1
- Kd (His-tagged CEACAM1 [2]): 590 nM
- koff (His-tagged CEACAM1 [2]): 0.057 s⁻¹
- kon (His-tagged CEACAM1 [2]): 95000 M⁻¹ s⁻¹
- relative KD to parent (His-tagged CEACAM1 [2]): 1
B2: VH1/Vκ8 S29A (antibody, IgG4, V domains shown)
VH: B1 VH with V5L, D10G, K13Q, K19R, A21S, T40A, D42G, R44G, D75S, S88A
VL: EIVLTQSPATLSLSPGERATLSCRANSAVSYMYWYQQKPGQAPRPWIYLTSNRATGVPARFSGSGSGTDYTLTISSLEPEDFAVYYCQQWSSNPPTFGQGTKLEIK
notes: IgG4 (S241P), kappa; also called Parent; Parent (VH1/Vκ8 S29A)

- Kd (His-tagged CEACAM1 [1]): 99 nM
- koff (His-tagged CEACAM1 [1]): 0.009 s⁻¹
- kon (His-tagged CEACAM1 [1]): 91000 M⁻¹ s⁻¹
- relative KD to parent (His-tagged CEACAM1 [1]): 4.3
- Kd (His-tagged CEACAM1 [2]): 45 nM
- koff (His-tagged CEACAM1 [2]): 0.0076 s⁻¹
- kon (His-tagged CEACAM1 [2]): 180000 M⁻¹ s⁻¹
- relative KD to parent (His-tagged CEACAM1 [2]): 13.7
- binding result [3]: no binding
B3: CP08H03/Vκ8 S29A (antibody, IgG4, V domains shown)
VH: EVQLLESGGGLVQPGGSLRLSCAASGFIFSSHGMSWVRQAPGKGLEWVATISSGGTYTYYPDSVKGRFTISRDNSKNTLYLQMNSLKAEDTAMYYCARHDFDYFPYWFAHWGQGTLVTVSS
VL: B2 VL
notes: IgG4 (S241P), kappa; also called CP08_H03/Parent VL; CP08_H03/Parental

- Kd (His-tagged CEACAM1 [1]): 58 nM
- koff (His-tagged CEACAM1 [1]): 0.0078 s⁻¹
- kon (His-tagged CEACAM1 [1]): 130000 M⁻¹ s⁻¹
- relative KD to parent (His-tagged CEACAM1 [1]): 8.4
- binding result [3]: no binding
B4: CP08H03/CP08F05 (antibody, V domains shown)
VH: B3 VH
VL: B2 VL with S91T
notes: IgG4 (S241P), kappa
